Target: T1, biotinylated A93D-PNT domain (ETV6 residues 43-135, A93D, with Avitag) (human, UniProt P41212 43-135, A93D, biotin on the Avitag (~50 to 95% biotinylated))
T1 construct: ETV6, human, residues 43-135; made from the V112E construct by introducing A93D and E112V; also called biotinylated A93D-PNT domain ligand; A93D-PNT domain ligand; source: E. coli BL21 (λDE3) co-transformed with pET21a-BirA, purified (Ni-NTA, thrombin cleavage); not shown: His6, N-terminal, cleaved; Avitag, N-terminal, kept
T1 sequence (looked up): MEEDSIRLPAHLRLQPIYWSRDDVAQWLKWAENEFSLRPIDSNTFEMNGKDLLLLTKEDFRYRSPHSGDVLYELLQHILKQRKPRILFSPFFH
Assay: SPR; biotinylated A93D-PNT domain ligand captured on streptavidin Sensor Chip SA, PNT domain analytes flowed; Biacore X100, 25 °C, HBS-EP+ (10 mM HEPES, 150 mM NaCl, 3 mM EDTA, 0.05% v/v Tween-20, pH 7.4); analyte 0.2-60 nM, re-run at 20-6000 nM if KD > 60 nM
Details: both partners purified
Procedure, shortened: (§1)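 ETV6 PNT domain (residues 43-135), biotinylated through an Avitag, was diluted to 50 μg/ml in HBS-EP+ and captured on a streptavidin Sensor Chip SA in a Biacore X100 run at 25 °C. PNT domain analytes were passed over the chip at 0.2, 2, 20, 40 and 60 nM, or at 20-6000 nM in repeat runs where binding was weaker. Between cycles the chip was regenerated with 0.2% SDS for 30 s. The Biacore kinetics/affinity software wizard gave the association and dissociation rate constants and the equilibrium dissociation constant.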

Row | Binder | Kd | koff | kon
1 | V112E-PNT domain (ETV6 residues 40-125 with the V112E mutation) (domain or fragment, human, UniProt P41212 40-125, looked up, ETV6 PNT domain fragment, human, residues 40-125; expressed as residues 1-125 and cut by thrombin at the internal site V37-P38-R39/A40; 15N- or 13C/15N-labelled or unlabelled in NMR; also called V112E-PNT domain analyte; source: E. coli BL21 (λDE3), purified (Ni-NTA, thrombin cleavage, Superdex S75; size exclusion omitted for SPR); not shown: His6, N-terminal, cleaved) ALRMEEDSIRLPAHLRLQPIYWSRDDVAQWLKWAENEFSLRPIDSNTFEMNGKALLLLTKEDFRYRSPHSGDELYELLQHILKQRK | 5.1 nM | 0.0023 s⁻¹ | 440000 M⁻¹ s⁻¹
2 | D101A-V112E-PNT domain (domain or fragment, human, UniProt P41212 40-125, looked up, ETV6 PNT domain, human; source: E. coli BL21 (λDE3), purified (Ni-NTA, thrombin cleavage); not shown: His6, N-terminal, cleaved) ALRMEEDSIRLPAHLRLQPIYWSRDDVAQWLKWAENEFSLRPIDSNTFEMNGKALLLLTKEAFRYRSPHSGDELYELLQHILKQRK | 400 nM | 0.0025 s⁻¹ | 6300 M⁻¹ s⁻¹
3 | M89A-V112E-PNT domain (domain or fragment, human, UniProt P41212 40-125, looked up, ETV6 PNT domain, human; source: E. coli BL21 (λDE3), purified (Ni-NTA, thrombin cleavage); not shown: His6, N-terminal, cleaved) ALRMEEDSIRLPAHLRLQPIYWSRDDVAQWLKWAENEFSLRPIDSNTFEANGKALLLLTKEDFRYRSPHSGDELYELLQHILKQRK | 340 nM | 0.033 s⁻¹ | 97000 M⁻¹ s⁻¹
4 | E88A-V112E-PNT domain (domain or fragment, human, UniProt P41212 40-125, looked up, ETV6 PNT domain, human; source: E. coli BL21 (λDE3), purified (Ni-NTA, thrombin cleavage); not shown: His6, N-terminal, cleaved) ALRMEEDSIRLPAHLRLQPIYWSRDDVAQWLKWAENEFSLRPIDSNTFAMNGKALLLLTKEDFRYRSPHSGDELYELLQHILKQRK | 8.1 nM | 0.004 s⁻¹ | 500000 M⁻¹ s⁻¹
5 | L97A-V112E-PNT domain (domain or fragment, human, UniProt P41212 40-125, looked up, ETV6 PNT domain, human; source: E. coli BL21 (λDE3), purified (Ni-NTA, thrombin cleavage); not shown: His6, N-terminal, cleaved) ALRMEEDSIRLPAHLRLQPIYWSRDDVAQWLKWAENEFSLRPIDSNTFEMNGKALLLATKEDFRYRSPHSGDELYELLQHILKQRK | 700 nM | 0.068 s⁻¹ | 98000 M⁻¹ s⁻¹
6 | I59A-V112E-PNT domain (domain or fragment, human, UniProt P41212 40-125, looked up, ETV6 PNT domain, human; source: E. coli BL21 (λDE3), purified (Ni-NTA, thrombin cleavage); not shown: His6, N-terminal, cleaved) ALRMEEDSIRLPAHLRLQPAYWSRDDVAQWLKWAENEFSLRPIDSNTFEMNGKALLLLTKEDFRYRSPHSGDELYELLQHILKQRK | 5.8 nM | 0.0025 s⁻¹ | 430000 M⁻¹ s⁻¹
7 | E100A-V112E-PNT domain (domain or fragment, human, UniProt P41212 40-125, looked up, ETV6 PNT domain, human; source: E. coli BL21 (λDE3), purified (Ni-NTA, thrombin cleavage); not shown: His6, N-terminal, cleaved) ALRMEEDSIRLPAHLRLQPIYWSRDDVAQWLKWAENEFSLRPIDSNTFEMNGKALLLLTKADFRYRSPHSGDELYELLQHILKQRK | 7 nM | 0.0035 s⁻¹ | 500000 M⁻¹ s⁻¹
8 | K92A-V112E-PNT domain (domain or fragment, human, UniProt P41212 40-125, looked up, ETV6 PNT domain, human; source: E. coli BL21 (λDE3), purified (Ni-NTA, thrombin cleavage); not shown: His6, N-terminal, cleaved) ALRMEEDSIRLPAHLRLQPIYWSRDDVAQWLKWAENEFSLRPIDSNTFEMNGAALLLLTKEDFRYRSPHSGDELYELLQHILKQRK | 62 nM | 0.022 s⁻¹ | 350000 M⁻¹ s⁻¹
9 | L96A-V112E-PNT domain (domain or fragment, human, UniProt P41212 40-125, looked up, ETV6 PNT domain, human; source: E. coli BL21 (λDE3), purified (Ni-NTA, thrombin cleavage); not shown: His6, N-terminal, cleaved) ALRMEEDSIRLPAHLRLQPIYWSRDDVAQWLKWAENEFSLRPIDSNTFEMNGKALLALTKEDFRYRSPHSGDELYELLQHILKQRK | 1000 nM | 0.0095 s⁻¹ | 9500 M⁻¹ s⁻¹

Target: T2, biotinylated V112E-PNT domain (ETV6 residues 43-135, V112E, with Avitag) (human, UniProt P41212 43-135, V112E, biotin on the Avitag (~50 to 95% biotinylated))
T2 construct: ETV6, human, residues 43-135 of V112E ETV6; also called biotinylated V112E-PNT domain ligand; V112E-PNT domain ligand; source: E. coli BL21 (λDE3) co-transformed with pET21a-BirA, purified (Ni-NTA, thrombin cleavage); not shown: His6, N-terminal, cleaved; Avitag, N-terminal, kept
T2 sequence (looked up): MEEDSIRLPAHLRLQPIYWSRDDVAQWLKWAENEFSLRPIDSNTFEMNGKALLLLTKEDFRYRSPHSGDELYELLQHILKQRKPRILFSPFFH
Assay: SPR; biotinylated V112E-PNT domain ligand captured on streptavidin Sensor Chip SA, PNT domain analytes flowed; Biacore X100, 25 °C, HBS-EP+ (10 mM HEPES, 150 mM NaCl, 3 mM EDTA, 0.05% v/v Tween-20, pH 7.4); analyte 0.2-60 nM, re-run at 20-6000 nM if KD > 60 nM
Details: both partners purified
Procedure, shortened: as §1

Row | Binder | Kd | koff | kon
10 | A93D-PNT domain (ETV6 residues 40-125 with the A93D mutation) (domain or fragment, human, UniProt P41212 40-125, looked up, ETV6 PNT domain fragment, human, residues 40-125; expressed as residues 1-125 and cut by thrombin at the internal site V37-P38-R39/A40; 15N- or 13C/15N-labelled or unlabelled in NMR; also called A93D-PNT domain analyte; source: E. coli BL21 (λDE3), purified (Ni-NTA, thrombin cleavage, Superdex S75; size exclusion omitted for SPR); not shown: His6, N-terminal, cleaved) ALRMEEDSIRLPAHLRLQPIYWSRDDVAQWLKWAENEFSLRPIDSNTFEMNGKDLLLLTKEDFRYRSPHSGDVLYELLQHILKQRK | 7.5 nM | 0.0015 s⁻¹ | 200000 M⁻¹ s⁻¹
11 | R80A-A93D-PNT domain (domain or fragment, human, UniProt P41212 40-125, looked up, ETV6 PNT domain, human; source: E. coli BL21 (λDE3), purified (Ni-NTA, thrombin cleavage); not shown: His6, N-terminal, cleaved) ALRMEEDSIRLPAHLRLQPIYWSRDDVAQWLKWAENEFSLAPIDSNTFEMNGKDLLLLTKEDFRYRSPHSGDVLYELLQHILKQRK | 32 nM | 0.0029 s⁻¹ | 91000 M⁻¹ s⁻¹
12 | I48A-A93D-PNT domain (domain or fragment, human, UniProt P41212 40-125, looked up, ETV6 PNT domain, human; source: E. coli BL21 (λDE3), purified (Ni-NTA, thrombin cleavage); not shown: His6, N-terminal, cleaved) ALRMEEDSARLPAHLRLQPIYWSRDDVAQWLKWAENEFSLRPIDSNTFEMNGKDLLLLTKEDFRYRSPHSGDVLYELLQHILKQRK | 12 nM | 0.004 s⁻¹ | 340000 M⁻¹ s⁻¹
13 | K99A-A93D-PNT domain (domain or fragment, human, UniProt P41212 40-125, looked up, ETV6 PNT domain, human; source: E. coli BL21 (λDE3), purified (Ni-NTA, thrombin cleavage); not shown: His6, N-terminal, cleaved) ALRMEEDSIRLPAHLRLQPIYWSRDDVAQWLKWAENEFSLRPIDSNTFEMNGKDLLLLTAEDFRYRSPHSGDVLYELLQHILKQRK | 930 nM | 0.0023 s⁻¹ | 2400 M⁻¹ s⁻¹
14 | H119A-A93D-PNT domain (domain or fragment, human, UniProt P41212 40-125, looked up, ETV6 PNT domain, human; source: E. coli BL21 (λDE3), purified (Ni-NTA, thrombin cleavage); not shown: His6, N-terminal, cleaved) ALRMEEDSIRLPAHLRLQPIYWSRDDVAQWLKWAENEFSLRPIDSNTFEMNGKDLLLLTKEDFRYRSPHSGDVLYELLQAILKQRK | 13 nM | 0.0034 s⁻¹ | 270000 M⁻¹ s⁻¹

Reference: PMC7949025, “Biophysical characterization of the ETV6 PNT domain polymerization interfaces” (The Journal of Biological Chemistry, 2021)
